# Results as given in the DeepSol protein solubility set.
# Test: soluble on expression in E. coli; label from the status in PepcDB or PDB records
row,Sequence,soluble on expression in E. coli
1,MAAGSEATTPVIVAAGAGGEEGEHVKPFKPEKAKEIIMSLQQPAIFCNMVFDWPARHWNAKYLSQVLHGKQIRFRMGMKSMSTVPQFETTCNYVEATLEEFLTWNCDQSSISGPFRDYDHSKFWAYADYKYFVSLFEDKTDLFQDVKWSDFGFPGRNGQESTLWIGSLGAHTPCHLDSYGCNLVFQVQGRKRWHLFPPEDTPFLYPTRIPYEESSVFSKINVVNPDLKRFPQFRKAQRHAVTLSPGQVLFVPRHWWHYVESIDPVTVSINSWIELEEDHLARVEEAITRMLVCALKTAENPQNTRAWLNPTEVEETSHAVNCCYLNAAVSAFFDRCRTSEVVEIQALRTDGEHMKKEELNVCNHMEVGQTGSQNLTTGTDKPEAASPFGPDLVPVAQRSEEPPSERGGIFGSDGKDFVDKDGEHFGKLHCAKRQQIMSNSENAIEEQIASNTTTTPQTFISTDDLLDCLVNPQVTRIVAQLLIQGRSL,not soluble
2,MAMMAKHQAVKKIFDQIATKYDLIDTIISLGLDQHWRRVLVSSLGLREGMRCLDCGAGSGKVTELIYFRCGGCDVTALDITDSMFNPELKKYVKFVVSPAESLPFPDASFDRVSSAFLTRNLADIDRYFAEVYRVLRPGGVFVNMDIYNPTRPVISEFFSLYFYRFVPFFGNRATGSKNYTYLANTVKYFHRPSVISQKLADRGFSVEATDLFFGAVYLHRSVKPEGRGLEHHHHHH,not soluble
3,MGSDKIHHHHHHKVEDLVQIATALEVDTIVLNDELSPSQLTNLEKETNLHFIDRTGLILEIFANRAHSREAKLQVELAKLQYQLPRLRTSSTQRLDQQTAGNTGGGFTNRGSGETKLELNRRTIRNKINHINKELKEMTTSSDIQRKQRDKKDIPSVALVGYTNTGKSTTMNGLVRMYGRNEDKQVFEKDMLFATLDTSVRKLTFPDQKELVLSDTVGFVSHLPHQLVKAFRSTLAEAAKADLLVQIVDISDPHYREMMQTTEDTLNEIGVTDIPMIYAFNKADLAGVSYPTLDGNELTYSAKQLQSLEMVTALIKKQVFKNYVEAKFLIPFNEGQVVDFLNGNADVKKTDYTEEGTEITAELKEKDYQRLARYVIQ,not soluble
4,MSEDLMDLSPEEGIERFLRHREPSVRESTMRNAKTRLRFFNEWCEERDIENLNNLTGRDLADFVAWRRGDIAALTLQKQLSTIREALRYWADIEGVDDGLAEKVHAPELEHHHHHH,not soluble
5,MQSFLQLVAHDLYAKIGNDLSRTVLVFPNKRANLFFNEHLAGESDQPIWSPAAMSISDLFRKLSVQKAGDPIRLVCELYKVFREETESQETLDDFYFWGELLISDFDDVDKNLVDANKLFSNLQDLKNLMDDYEFLDKEQEEAIQQFFQNFSIERRTVLKEKFISLWDKLGTIYHRYRENLAELGIAYEGMLYRNVIEQLDTTRLKYDKYIFVGFNVLNKVETKFFQLLQDADKAMFYWDYDLFYTKQIVKHEAGEFINRNLKLFPNELPESCFDTLRKPKNIRYISASTENAQARFLPEWVQSTLSTANEEKENAVVLCNEALLLPVLHSIPQEVENVNITMGFPLAQTPVYSFINAAMELQTNGYRTATGRFTYETVSAILKHPYTRQLSINAEPLERELTKTNRFYPLPSELKMDDFLIKLFTPRSGIKELCDYLTELIKDISLLYREESEYNDIFNQLYRESLFKSYTTINRLYSLIETGELNVRTDTLRRLVSKVLTASNIPFHGEPAIGMQVMGVLETRNLDFRNIILLSLNEGQLPKSGGDSSFIPYNLRKAFGMTTIEHKNAVYAYYFYRLIQRAENITLLYNTSSNGLNRGEESRFMLQLLVEGPHKITREYLEAGQSPQGTTDISIEKTPEVFERLRCSYDCSNPQSYILSPSALNAYLDCRLKFYYRYVARLKAPDEVSAEIDSALFGTIFHLSAQLAYTDLTANRKIIQKEDLERLLRNEVKLQNYVDLAFKQELFKVPADEKPEYNGVQLINSKVIVSYLKQLLRNDLQYAPFEMVAMEKPVAEKITIQTGQGPITLRLGGTIDRMDAKDTTLRIVDYKTGGSPKTPANIEQLFTPSETRPNYIFQTFLYAAIMSRQQSLKVAPSLLYIHRAASESYSPVIEMGEPRQPKIPVNNFAFFEDEFRERLQRLLKEIFDENEPFTQTEDTKKCAYCDFKAICKR,not soluble
6,GQDTGEDNLAIKGITTLNDLTMVNVSGPGMKGMVGMASRVFGAMSSAGVSIVLITQSSSEYSISFCIEADDKLKAQQVLADAFELELKDGLLEPVDFIDDVSIVTLVGDGMRTSRGVASRFFSSLAEVNVNIVAIAQGSSERAISAVIPEDKISEAIKACHENLFNSKYF,not soluble
7,MSLGSNKTIIINLNNLEHNLNLIKNKIGEKEIVATLKGDAYGHGLINIFKFLKSKNINYFGLSNIEDAKTLKKIDKNIKILMYIKVDKKEIKNLIKFELVPFVSDFEYLFLIEKECALQKNKIKVHLKIDIGMNRYGIKIDDALEIATYIQNSKFLELEGICSHLPSIENFKTTQKQIEQFLFFLETLKQKNIHPKFVHISNSGHIINYKLNPQFNMVRPGLILYGYCQSEGHHHHHH,not soluble
8,MITPSRYPGIYIAPLSSEPTAAHTFKEQAEKALDHISAGPSGRELLQEISKLASKKDRKVTLKEIEINNQCYTDAVLSRRQLEKYEPEDFNENRRIASRLSRKGTFTKGEGSNAIIGWSPDKASIRLNQNGSPLRLGMDNDDKITTLAHELVHVRHVLSGSSLADDGDRYNPRTGSGKEELRAVGLDKYSYSLTKEPSENSIRAEHGLPLRMKYRPHQ,not soluble
9,QILSIDPLDISQNLAAVNKSLSDALQHLAQSDTYLSAI,soluble
10,GPGSMFHRTTPEEEVRKWTRSLRSEQRKIELQITKIRREEAKVKLSMKQAAKQNDQVVMRMLAKEMIRSRKAVNRMYASKAQMNSVSMQLQNQASQMKMSGSLKKSGEIMKEMNSLVKVKEVQQSMMAMSKEMVKAGLIDEIMNDTIDEALDDDISDTELEDEVNKVVMDVVQGQMDGARVGASRIPAQQQQQQETAEEEEDELMEKLNALRNS,soluble
11,MGSDKIHHHHHHCNNSNTKDNDKLFIGNGKFCQAKRLNGLGAIYDDDYIFFDCENQIYESYNYSNKKNDKKLNVNCRNSACSHNNDKCEAYVELGEYFVFNSKIYKYYNKSKVVSGENRLYGSIVEEESGKTVFKNSIPTDMSSELAIDDSEAILYVRVLSDDIIKVDGDRHAYLLDKNFNIIYCHYNIGKFPWGAILNGNYYYINDINEIVKVNLTTFESKSIASNGKAFMADNDENFIYYSNEFSELYKLSPDDESSIKIADNALFFSVQNKYIYASGGDNGNKIIYDKNGKIIADYSACVNMGADSAFQINDKIYTIFNGGVAYMDLDGKNYGEMMQ,not soluble
12,MARIIVVTSGKGGVGKTTSSAAIATGLAQKGKKTVVIDFDIGLRNLDLIMGCERRVVYDFVNVIQGDATLNQALIKDKRTDNLYILPASQTRDKDALTKEGVEKVLNDLGEMNFEFVVCDSPAGIESGALMALYFADEAVITTNPEVSSVRDSDRILGILSSKSRRAENSQEPIKEHLLLTRYNPGRVNRGDMLSMEDVLDILRIPLVGVIPEDQSVLRASNQGEPVILDKESDAGKAYEDTVDRLLGEERPFRFVEEEKKGFLKRLFGG,not soluble
13,KLMKVNHAADAAEEGLVSDPLEWTGVRIGPGINGTIAQLPTLAGEEIIATRVVHSKTFHSLAAPNDRLHEGMVLVIHGTPDALERAIAKVGKQQDVPIEDTDLVYSRFTVSSKAVVGRKISDLDTVRSGFIISRLRRGDADVVPEPDDVLHYSDRVRVIAPANRMSEVRRFLGDSERSLADVD,not soluble
14,MSLDSIELMAKIHASARWSEAALQILADETRRILKHEAGTRAGEDPEQLHQMRVGIRRLRSALRLFEPALKLPKPARRRSLSPLAAVLGSVRDLDVQMEMLRERYLGALPEGEQQALERLLAHLESLRTQARSAMLRYLDGLDYEQFKSAYTEFLESPKFRRGADESLYHLLPAFLREALSTLWAHPGWEEPDVETMHDLRIAVKRVRYNLEFFLGCYGKAVRSLHGELKRIQEELGIIHDCDVLLGQLHTEPLGPATPWQQPFSRLTALVRNERRNAVRRFRRLKTRLLSEDMRNSLAVWVSWPGTADDEGHHHHHH,not soluble
15,MKTSIIILTCNNLRYSRRCIESIKKYTEKEAYEIIVVDNNSNDGTRNWLSKQKAIKKIYNNVNVGFPRGCNMGIKVACGSEVLLLNNDVVVTHNWLNNLRNCLYSSYEIGAVGPISNNCSNGQKINVRYDSIEDMHRFSKKYNISNKKKWTEVKRLIGFCFLIKRNVIRKVGLFDERFTPGNFEDDDYCIRMRKIGFRLMLCKDTFVHHYGSVSFKNTQYLKLLEVNKSKLEKKWGKSYDKLVLEHHHHHH,not soluble
16,MQFSTLIRVAVFAVLAIATLADYDDNSVGTIPVAVDLDYFSNYVKKGGPQGPLRFGKRRGPSGPLRFGKRSSFHVAPAAEDVASWYQ,not soluble
17,MRIVVTRPQRSGERTAAKLEALGHAPVLLPLFHPIHHGERATSALSDPAGAIAVTSAEALRALATCEEQLAPYLSKPLFAVGGATAEAAQETGFEQIFTASGDALGLTVLVKQHRAFLTEEEPLLYLAGRPRGSVFEEGLAAAGIPFRTVDCYEMLPSDISENTLETTLLDTTADMVLLYSSEAARAFFHHVSADKYVTALAATKFICISRNVLFLVPEIFRANAKAAEEPSEAAMFELLHHNSGT,not soluble
18,AHHHHHHGSERAFIEWYPRGYGVAFKIKKKIYEKLSKYQKIEVYETEGFGRLLALDGTVQLVTLGERSYHEPLVHPAMLAHPKPKRVLVIGGGDGGTVREVLQHDVDEVIMVEIDEDVIMVSKDLIKIDNGLLEAMLNGKHEKAKLTIGDGFEFIKNNRGFDVIIADSTDPVGPAKVLFSEEFYRYVYDALNNPGIYVTQAGSVYLFTDELISAYKEMKKVFDRVYYYSFPVIGYASPWAFLVGVKGDIDFTKIDRERAKKLQLEYYDPLMHETLFQMPKYIRETLQRL,soluble
19,MRNHYMSMYDMRQFFKTYFSSASEKSILVKLLDKRFHPPSHTANILDLGCHDGALMKNIVNAYAKRLPEKLVITGVDPSLQAIKEYAKADFPIPVQTNTFAGTAEDYFDVCTDHFDWIFASQCLYWSPDLPKIIKQIHETGDSALIVIRGCHGIYEIQSQFRHYIGNHLEKFYTDKEVEMALRTQKILFQKESLSTSIRLPDKDSIELKWLILFFLQMEEESLGDKIFCEVRDWITSRTSGSIHHEVHFFWLGNAILQGITI,not soluble
20,MAHHHHHHMKYMPQRPCIGICQGCWTVQLGGVNQYIQIWRYENLKHRYDCRKQVEQDQEWLRTYVKPADDMMISKSNTLLRLVYREGNASTQSYKYLMQVSPHKEVELSGPSATLAATFQVIVGEEEGKYIHLVKGHKLDDVIPVTPTLGCSSKIMGPVRWSSTMNCLWR,not soluble
21,MEKYIKEQRSICDKYKAEYVESPNDLKLGIAQNVKDGIAPINGLRMPIENGTTGWYIWAGEEMGTEEDFFLPLHVQHIDEWAPEIKKYLGLPPGWRFLIAGDYEDVWYDPNLFDEDLEEDADEWEENMLQEYGWYMHSILAEDIDGIHANYHTHGLRDNFNHQDLQIALNMDPEVAHSVFCTIIEEIKSGKKFEQGIEYTNIIEGYPIIMKSFVEMDREVLRVLLPDERGILPTRPECDECYKTQLDDIEES,not soluble
22,MSIQYEAPLADSYGVADSFPKDFGYGEEEGDIEDSPSPSDSKPRILLMGLRRSGKSSIQKVVFHKMSPNETLFLESTNKIYKDDISSSSFVNFQIWDFPGQVDFFDPTFDYELIFRGTGALIFVIDAQDDYVEALSRLHLTVSRAYRVNPEINFEVFIHKVDGLSDDHKIETQRDIHQRANDDLADASLEKLHLSFYLTSIYDHSIFEAFSKVVQKLIPQLPTLENLLNIFISNSGIEKAFLFDVVSKIYIATDSSPVDMQSYELCCDMIDVVIDVSCIYGLKEDGSGSAYDKESMAIIKLNNTTVLYLKEVTKFLALVCILRGESFERKGLIDYNFHCFRKAIHEVFEVGVSTSRTSNQPVGTPLMKTVALNGTPRSTV,soluble
